In paper PMC5362816, “Calmodulin is responsible for Ca^2+-dependent regulation of TRPA1 Channels” (Scientific Reports, 2017):

Tests used:
CaM-agarose (Sigma) = target: T1, CaM-agarose (Sigma) (UniProt P62157 1-149, coupled to agarose); assay: pull-down; competition: purified GST-C1A1 fragment on CaM-agarose with 200 μM peptide (CaMBD peptide, scrambled peptide or CALP2); conditions: both partners purified
T1 construct: calmodulin coupled to agarose, bought from Sigma; Commercial reagent; also called calmodulin; source: bought: Sigma (CaM-agarose)

pure CaM (Sigma) = target: T2, pure CaM (Sigma) (UniProt P62157 1-149); assay: native gel or EMSA; 600 nM CaM incubated with different molar ratios of peptide; 10 mM Na-HEPES pH 7.2, 2 mM Ca2+, room temperature, 1 h; 12% non-denaturing PAGE with 2 mM Ca2+; silver staining (read-out: CaM band intensity, no mobility shift); conditions: both partners purified
T2 construct: pure calmodulin bought from Sigma; also called calmodulin; source: bought: Sigma

- binding result (CaM-agarose (Sigma)): binds
- binding result (pure CaM (Sigma)): binds
B1: CaMBD peptide (peptide)
peptide: LWYLRKVDQRSTIVYPN
notes: also called WT peptide; the 17AA; source: synthetic peptide (Biomatik)
